Measurements taken from paper PMC5344783 (Molecular microbiology, 2017).

B1: EzrA-HA (natural protein)
chain: MSNGQLIYLMVAIAVILVLAYVVAIFLRKRNEGRLEALEERKEELYNLPVNDEVEAVKNMHLIGQSQVAFREWNQKWVDLSLNSFADIENNLFEAEGYNHSFRFLKASHQIDQIESQITLIEEDIAAIRNALADLEKQESKNSGRVLHALDLFEELQHRVAENSEQYGQALDEIEKQLENIQSEFSQFVTLNSSGDPVEAAVILDNTENHILALSHIVDRVPALVTTLSTELPDQLQDLEAGYRKLIDANYHFVETDIEARFHLLYEAFKKNQENIRQLELDNAEYENGQAQEEINALYDIFTREIAAQKVVENLLATLPTYLQHMKENNTLLGEDIARLNKTYLLPETAASHVRRIQTELESFEAAIVEVTSNQEEPTQAYSVLEENLEDLQTQLKDIEDEQISVSERLTQIEKDDINARQKANVYVNRLHTIKRYMEKRNLPGIPQTFLKLFFTASNNTEDLMVELEQKMINIESVTRVLEIATNDMEALETETYNIVQYATLTEQLLQYSNRYRSFDERIQEAFNEALDIFEKEFDYHASFDKISQALEVAEPGVTNRFVTSYEKTRETIRF
B2: bPBP2b-HA (enzyme)
chain: MRKFNSHSIPIRLNLLFSIVILLFMTIIGRLLYMQVLNKDFYEKKLASASQTKITSSSARGEIYDASGKPLVENTLKQVVSFTRSNKMTATDLKETAKKLLTYVSISSPNLTERQLADYYLADPEIYKKIVEALPSEKRLDSDGNRLSESELYNNAVDSVQTSQLNYTEDEKKEIYLFSQLNAVGNFATGTIATDPLNDSQVAVIASISKEMPGISISTSWDRKVLETSLSSIVGSVSSEKAGLPAEEAEAYLKKGYSLNDRVGTSYLEKQYEETLQGKRSVKEIHLDKYGNMESVDTIEEGSKGNNIKLTIDLAFQDSVDALLKSYFNSELENGGAKYSEGVYAVALNPKTGAVLSMSGIKHDLKTGELTPDSLGTVTNVFVPGSVVKAATISSGWENGVLSGNQTLTDQSIVFQGSAPINSWYTQAYGSFPITAVQALEYSSNTYMVQTALGLMGQTYQPNMFVGTSNLESAMEKLRSTFGEYGLGTATGIDLPDESTGFVPKEYSFANYITNAFGQFDNYTPMQLAQYVATIANNGVRVAPRIVEGIYGNNDKGGLGDLIQQLQPTEMNKVNISDSDMSILHQGFYQVAHGTSGLTTGRAFSNGALVSISGKTGTAESYVADGQQATNTNAVAYAPSDNPQIAVAVVFPHNTNLTNGVGPSIARDIINLYQKYHPMN
B3: MreC (natural protein)
chain: MNRFKKSKYVIIVFVTVLLVSALLATTYSSTIVTKLGDGISLVDRVVQKPFQWFDSVKSDLAHLTRTYNENESLKKQLYQLEVKSNEVESLKTENEQLRQLLDMKSKLQATKTLAADVIMRSPVSWKQELTLDAGRSKGASENMLAIANGGLIGSVSKVEENSTIVNLLTNTENADKISVKIQHGSTTIYGIIIGYDKENDVLKISQLNSNSDISAGDKVTTGGLGNFNVADIPVGEVVATTHSTDYLTREVTVKLSADTHNVDVIELVGNS
B4: FtsZ-Myc (natural protein)
chain: MTFSFDTAAAQGAVIKVIGVGGGGGNAINRMVDEGVTGVEFIAANTDVQALSSTKAETVIQLGPKLTRGLGAGGQPEVGRKAAEESEETLTEAISGADMVFITAGMGGGSGTGAAPVIARIAKDLGALTVGVVTRPFGFEGSKRGQFAVEGINQLREHVDTLLIISNNNLLEIVDKKTPLLEALSEADNVLRQGVQGITDLITNPGLINLDFADVKTVMANKGNALMGIGIGSGEERVVEAARKAIYSPLLETTIDGAEDVIVNVTGGLDLTLIEAEEASQIVNQAAGQGVNIWLGTSIDESMRDEIRVTVVATGVRQDRVEKVVAPQARSATNYRETVKPAHSHGFDRHFDMAETVELPKQNPRRLEPTQASAFGDWDLRRESIVRTTDSVVSPVERFEAPISQDEDELDTPPFFKNR
B5: aPBP2a-HA^4 (enzyme)
chain: MKLDKLFEKFLSLFKKETSELEDSDSTILRRSRSDRKKLAQVGPIRKFWRRYHLTKIILILGLSAGLLVGIYLFAVAKSTNVNDLQNALKTRTLIFDREEKEAGALSGQKGTYVELTDISKNLQNAVIATEDRSFYKNDGINYGRFFLAIVTAGRSGGGSTITQQLAKNAYLSQDQTVERKAKEFFLALELSKKYSKEQILTMYLNNAYFGNGVWGVEDASKKYFGVSASEVSLDQAATLAGMLKGPELYNPLNSVEDSTNRRDTVLQNMVAAGYIDKNQETEAAEVDMTSQLHDKYEGKISDYRYPSYFDAVVNEAVSKYNLTEEEIVNNGYRIYTELDQNYQANMQIVYENTSLFPRAEDGTFAQSGSVALEPKTGGVRGVVGQVADNDKTGFRNFNYATQSKRSPGSTIKPLVVYTPAVEAGWALNKQLDNHTMQYDSYKVDNYAGIKTSREVPMYQSLAESLNLPAVATVNDLGVDKAFEAGEKFGLNMEKVDRVLGVALGSGVETNPLQMAQAYAAFANEGLMPEAHFISRIENASGQVIASHKNSQKRVIDKSVADKMTSMMLGTFTNGTGISSSPADYVMAGKTGTTEAVFNPEYTSDQWVIGYTPDVVISHWLGFPTTDENHYLAGSTSNGAAHVFRNIANTILPYTPGSTFTVENAYKQNGIAPANTKRQVQTNDNSQTDDNLSDIRGRAQSLVDEASRAISDAKIKEKAQTIWDSIVNLFR
B6: bPBP2x-HA (enzyme)
chain: MKWTKRVIRYATKNRKSPAENRRRVGKSLSLLSVFVFAIFLVNFAVIIGTGTRFGTDLAKEAKKVHQTTRTVPAKRGTIYDRNGVPIAEDATSYNVYAVIDENYKSATGKILYVEKTQFNKVAEVFHKYLDMEESYVREQLSQPNLKQVSFGAKGNGITYANMMSIKKELEAAEVKGIDFTTSPNRSYPNGQFASSFIGLAQLHENEDGSKSLLGTSGMESSLNSILAGTDGIITYEKDRLGNIVPGTEQVSQRTMDGKDVYTTISSPLQSFMETQMDAFQEKVKGKYMTATLVSAKTGEILATTQRPTFDADTKEGITEDFVWRDILYQSNYEPGSTMKVMMLAAAIDNNTFPGGEVFNSSELKIADATIRDWDVNEGLTGGRTMTFSQGFAHSSNVGMTLLEQKMGDATWLDYLNRFKFGVPTRFGLTDEYAGQLPADNIVNIAQSSFGQGISVTQTQMIRAFTAIANDGVMLEPKFISAIYDPNDQTARKSQKEIVGNPVSKDAASLTRTNMVLVGTDPVYGTMYNHSTGKPTVTVPGQNVALKSGTAQIADEKNGGYLVGLTDYIFSAVSMSPAENPDFILYVTVQQPEHYSGIQLGEFANPILERASAMKDSLNLQTTAKALEQVSQQSPYPMPSVKDISPGDLAEELRRNLVQPIVVGTGTKIKNSSAEEGKNLAPNQQVLILSDKAEEVPDMYGWTKETAETLAKWLNIELEFQGSGSTVQKQDVRANTAIKDIKKITLTLGD

Tests used:
Test in all cases: co-IP
GpsB-L-FLAG^3 = molecular target: T1, GpsB-L-FLAG^3 (Streptococcus pneumoniae (strain D39 …, UniProt Q8DR57 1-109))
T1 sequence: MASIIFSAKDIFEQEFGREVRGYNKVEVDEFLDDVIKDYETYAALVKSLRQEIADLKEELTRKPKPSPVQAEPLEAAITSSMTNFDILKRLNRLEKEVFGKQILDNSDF

StkP-FLAG^2 = molecular target: T2, StkP-FLAG^2 (Streptococcus pneumoniae (strain D39 …, UniProt Q8DNS0 1-659))
T2 sequence: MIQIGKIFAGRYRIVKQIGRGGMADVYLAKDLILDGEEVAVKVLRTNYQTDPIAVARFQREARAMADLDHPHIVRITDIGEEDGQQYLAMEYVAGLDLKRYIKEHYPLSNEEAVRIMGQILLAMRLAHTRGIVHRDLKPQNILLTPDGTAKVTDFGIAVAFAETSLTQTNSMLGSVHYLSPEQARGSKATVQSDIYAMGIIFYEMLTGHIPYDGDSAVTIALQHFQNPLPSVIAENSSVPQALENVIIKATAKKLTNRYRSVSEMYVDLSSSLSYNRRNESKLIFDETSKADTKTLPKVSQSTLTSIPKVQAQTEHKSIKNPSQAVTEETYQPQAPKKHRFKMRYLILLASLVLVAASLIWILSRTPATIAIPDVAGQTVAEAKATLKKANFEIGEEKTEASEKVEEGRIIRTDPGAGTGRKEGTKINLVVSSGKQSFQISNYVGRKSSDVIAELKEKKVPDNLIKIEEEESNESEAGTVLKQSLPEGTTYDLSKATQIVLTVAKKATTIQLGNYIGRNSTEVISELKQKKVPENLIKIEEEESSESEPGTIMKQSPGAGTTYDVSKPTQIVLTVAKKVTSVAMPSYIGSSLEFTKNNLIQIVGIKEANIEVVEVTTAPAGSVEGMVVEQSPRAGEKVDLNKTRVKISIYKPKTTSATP

EzrA-L-FLAG^3 = molecular target: T3, EzrA-L-FLAG^3 (Streptococcus pneumoniae (strain D39 …, UniProt Q8DQE5 1-575))
T3 sequence: B1 chain

Binder | ratio of prey protein band, GpsB-L-FLAG^3 bait to GpsB^+ control (GpsB-L-FLAG^3) | ratio of prey protein band, StkP-FLAG^2 bait to StkP^+ control (StkP-FLAG^2) | ratio of prey protein band, EzrA-L-FLAG^3 bait to EzrA^+ control (EzrA-L-FLAG^3)
B1 | 5.4 ratio |  | 
B2 | 18.3 ratio | 8.1 ratio | 
B3 | 6.2 ratio | 8.5 ratio | 
B4 |  |  | 15 ratio
B5 | 4 ratio |  | 
B6 |  | 3.4 ratio | 
